Where a name gives a salt, the structure may show the parent alone. Peptide text beside a SMILES is read from it. * marks the point of attachment. Succinyl(20-O-(20S)-CPT) = CC[C@@]1(OC(=O)CCC(=O)*)C(=O)OCc2c1cc1n(c2=O)Cc2cc3ccccc3nc2-1; Fmoc = O=C(OCC1c2ccccc2-c2ccccc21)*
Assays:
[1] = Solubility in PBS and water; assay type: physicochemical; details: for solubility in water: pure water (H2O)
Description: Three CPT-tetrapeptide (KFKK (SEQ ID NO:6)) conjugates were prepared that have alternating hydrophobic and hydrophilic sequence similar to the dipeptide derivatives with one additional lysine bearing a charged free amine. Compound E, F, and G were soluble in both H2O and PBS but as hydrophobicity decreased by changing the N-termini from -Fmoc to —NH2, solubility in both solutions increased.

[2] = Hydrolytic (lactone) stability in PBS by HPLC; assay type: physicochemical; details: for lactone form present after 7 days: stored at 10 mM
Description: The hydrolytic stability of C and D was measured by HPLC in PBS at 37° C. over a week as a function of concentration. […] The stability of the lactone depended strongly on the concentration (FIG. 11(A)). For example, the amount of lactone remaining after 7 days decreased from 91 to 30% for C upon changing the concentration from 10 to 0.2 mM). This progression is consistent with the non-covalent nature of the nanotube structures, which depend on concentration. However, even at 0.2 mM in PBS, 80% of the lactone remained after 24 h, in contrast to CPT, of which 17% of its structure was in the lactone form after 24 h under these conditions.

[3] = Lactone stability in human serum (HS) by HPLC
Description: FIG. 11 (A) is a graph showing lactone stability of CPT-dipeptides Ac-KK(CPT)-NH2 (C), and NH2—KK(CPT)-NH2 (D) in human serum (HS) at 37° C. (pH 7.4) at 1 and 10 mM, as monitored by HPLC. […] Samples were prepared at 10 mM in PBS and subsequently diluted to 1 mM in HS after 24 h.

[4] = system: mesothelioma tumor xenografts; experiment: Mesothelioma (MSTO) tumor xenograft model in mice; assay type: in vivo; details: for Deaths from Tumor Burden: MSTO model, mice, weekly
Description: (§1) NH2—KK(CPT)-NH2 (D) was evaluated for efficacy in treating Lewis Lung Carcinoma (LLC) and mesothelioma tumor xenografts in mice. Animals were first injected with tumor cells either into the flank (LLC model; FIG. 12) or peritoneum (mesothelioma model; Table 2)), and allowed to develop small tumors. The animals were subsequently administered weekly either intravenous or intraperitoneal drugs or saline (negative control), and monitored for tumor burden and body weight over several weeks. […] But these initial studies were extremely limited in scope, only testing one of 15-20 structures that have been created. This lower efficacy is most likely due to reduced mobility of the 1D nanotubes within tissue, a property that can be beneficially exploited to increase the retention of drug within tumors by allowing the assembly process to respond structurally in the environment of the tumor cells.

[5] = system: HT-29 cells; experiment: Flow cytometry of cellular uptake as a function of time; assay type: cell-based, human; details: as a function of incubation time
Description: To quantify the cellular uptake as a function of time, flow cytometry was conducted by monitoring the CPT dipetides at a wavelength of 420-470 nm after 335 nm excitation. […] An analogous flow cytometry study was performed with A549 cells, and similar results and trends were observed.

[6] = system: Lewis Lung Carcinoma (LLC); experiment: Lewis Lung Carcinoma (LLC) flank tumor model in mice; assay type: in vivo; details: tumor cells into the flank, weekly intravenous or intraperitoneal
Description: as §1

[7] = system: HT-29 cells; experiment: In vitro cell assay, HT-29 viability by MTS colorimetric assay; assay type: cell-based, human; details: HT-29, 4 days growth after exposure, conjugates prepared at 10 mM in PBS, aged 3 days
Description: The conjugates discussed in Examples 1 and 2 were tested for efficacy against killing human colorectal cancer cells in an in vitro cell assay. HT-29 cells were plated into 96-well tissue culture plates, at a density of 5,000 cells/well, and allowed to grow overnight. The conjugates were previously prepared at 10 mM in sterile PBS and allowed to age 3 days, while all other Camptothecin drugs were prepared fresh for each experiment/replicate. Irinotecan HCl was dissolved in pH-neutral, sterile-filtered water, and S-Camptothecin and 10-hydroxycamptothecin were dissolved in DMSO due to solubility issues. Further dilutions of all drugs, both Camptothecin-peptides and free Camptothecin derivatives, were performed in cell culture medium. The cells were then exposed to serial dilutions containing the drugs or cell culture medium alone for the control. A peptide derivative was prepared without Camptothecin to serve as a control to test for toxicity of the peptides themselves, and was also tested in this assay. The cells were then allowed to grow for a further 4 days before being assessed for viability using an MTS colorimetric assay.

In the case of `CC[C@@]1(OC(=O)CCC(=O)NCCCC[C@H](NC(=O)[C@H](CCCCNC(C)=O)NC(=O)OCC2c3ccccc3-c3ccccc32)C(N)=O)C(=O)OCc2c1cc1n(c2=O)Cc2cc3ccccc3nc2-1` [A, Fmoc-K(Ac)K(CPT)-NH2], the solubility in water [1] is reported as “poor solubility”.
With `CC[C@@]1(OC(=O)CCC(=O)NCCCC[C@H](NC(=O)[C@H](CCCCN)NC(C)=O)C(N)=O)C(=O)OCc2c1cc1n(c2=O)Cc2cc3ccccc3nc2-1` [C, Ac-KK(CPT)-NH2] the “lactone remaining after 24 h” value ([2]; 37° C., 0.2 mM) was 80%, the “lactone remaining after 7 days” value ([2]; 37° C., 0.2 mM) was 30% and the “lactone form present after 7 days” value ([2]; 37° C.) was 91%. The “lactone stability after dilution to 1 mM” value [3] was “significantly greater stability than D”.
With `CC[C@@]1(O)C(=O)OCc2c1cc1n(c2=O)Cc2cc3ccccc3nc2-1` [CPT, Camptothecin, reference compound] the “time to hydrolysis to the inactive carboxylate form” value [2] was “within hours”, the “lactone remaining after 24 h” value ([2]; 37° C., 0.2 mM) was 17% and the “Deaths from Tumor Burden” value ([4]; 5 mg/kg) was 0/5.
In the case of `CC[C@@]1(OC(=O)CCC(=O)NCCCC[C@H](NC(=O)[C@H](CCCCN)NC(=O)OCC2c3ccccc3-c3ccccc32)C(N)=O)C(=O)OCc2c1cc1n(c2=O)Cc2cc3ccccc3nc2-1` [Compound B, Fmoc-KK(CPT)-NH2], the “solubility in PBS” value [1] is reported as “poor solubility”.
In the case of `CC[C@@]1(OC(=O)CCC(=O)NCCCC[C@H](NC(=O)[C@H](CCCCN)NC(=O)[C@H](Cc2ccccc2)NC(=O)[C@H](CCCCN)NC(=O)OCC2c3ccccc3-c3ccccc32)C(N)=O)C(=O)OCc2c1cc1n(c2=O)Cc2cc3ccccc3nc2-1` [Compound E, Fmoc-KFKK(CPT)-NH2] (Fmoc-KFKK(Succinyl(20-O-(20S)-CPT))-NH2; N-terminus and C-terminus assumed), the “solubility in PBS” value [1] is reported as “soluble” and the solubility in water [1] is reported as “soluble”.
For `CC[C@@]1(OC(=O)CCC(=O)NCCCC[C@H](NC(=O)[C@H](CCCCN)NC(=O)[C@H](Cc2ccccc2)NC(=O)[C@H](CCCCN)NC(C)=O)C(N)=O)C(=O)OCc2c1cc1n(c2=O)Cc2cc3ccccc3nc2-1` [Compound F, Ac-KFKK(CPT)-NH2] (Ac-KFKK(Succinyl(20-O-(20S)-CPT))-NH2), the “solubility in PBS” value [1] was “soluble”, the “precipitation in PBS at 10 mM” value [1] was “remained highly soluble” and the solubility in water [1] was “soluble”.
In the case of `CC[C@@]1(OC(=O)CCC(=O)NCCCC[C@H](NC(=O)[C@@H](N)CCCCN)C(N)=O)C(=O)OCc2c1cc1n(c2=O)Cc2cc3ccccc3nc2-1` [D, NH2—KK(CPT)-NH2], the “cellular uptake (fluorescence, 420-470 nm after 335 nm excitation)” value [5] is reported as “slightly higher than that of C”, the “lactone form present after 7 days” value ([2]; 37° C.) is reported as 71% and the “Deaths from Tumor Burden” value ([4]; 5 mg/kg) is reported as 2/5. For the same compound, the “Deaths from Tumor Burden” value ([4]; 15 mg/kg) was 2/5, the “in vivo efficacy (tumor burden)” value ([4]; mesothelioma model, tumor cells into the peritoneum, weekly intravenous or intraperitoneal) was “lower in vivo efficacy” and the “in vivo efficacy (tumor burden)” value [6] was “lower in vivo efficacy”. The “solubility in PBS” value [1] was “limited solubility”.
In the case of `CC[C@@]1(OC(=O)CCC(=O)NCCCC[C@H](NC(=O)[C@H](CCCCN)NC(=O)[C@H](Cc2ccccc2)NC(=O)[C@@H](N)CCCCN)C(N)=O)C(=O)OCc2c1cc1n(c2=O)Cc2cc3ccccc3nc2-1` [G, NH2—KFKK(CPT)-NH2] (H-KFKK(Succinyl(20-O-(20S)-CPT))-NH2), the “solubility in PBS” value [1] is reported as “soluble”, the “precipitation in PBS at 10 mM” value [1] is reported as “remained highly soluble” and the solubility in water [1] is reported as “soluble”.
With `CCc1c2c(nc3ccc(OC(=O)N4CCC(N5CCCCC5)CC4)cc13)-c1cc3c(c(=O)n1C2)COC(=O)[C@]3(O)CC` [Irinotecan HCl, reference compound] the “potency in killing human colorectal cancer cells (viability)” value [7] was “the least potent”, the “cellular uptake (fluorescence, 420-470 nm after 335 nm excitation)” value [5] was “highest fluorescence” and the “Deaths from Tumor Burden” value ([4]; 100 mg/kg) was 0/5.

Reference: US10098967B2, “Self-assembly of therapeutic agent-peptide nanostructures” (Ohio State Innovation Foundation, priority 2012, dated 2018)
